Assay results as given in IntAct's records for PubMed 12732850.

B1: Humanin (Homo sapiens), Q8IVG9 (parent)
chain: MAPRGFSCLLLLTSEIDLPVKRRA

Variants of: B1
Settings: with bax_human BAX

| effect of a mutation on the interaction | Variant |
| --- | --- |
| disrupting interaction strength | MAPRGFSPLLLLTSEIDLPVKRRA |
